From patent US20200299389A1 come the findings set out here.

For assay [1], the target named is VEGF165 (UniProt P15692). Nature of the assay: ELISA. As to conditions: Fc fusion.
For assay [2], the target named is VEGF165 (UniProt P15692). Nature of the assay: cell-based or functional assay.

Chain of VEGF165 (P15692 other isoform, or with tags, fused parts or gaps): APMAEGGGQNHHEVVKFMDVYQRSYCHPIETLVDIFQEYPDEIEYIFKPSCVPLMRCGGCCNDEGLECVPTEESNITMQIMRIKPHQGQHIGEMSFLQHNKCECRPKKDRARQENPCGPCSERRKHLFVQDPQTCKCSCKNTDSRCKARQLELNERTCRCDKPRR

As for “VEGFR-Fc (aflibercept) (from UniProt P17948 129-230; P35968 225-327)”, in the assay with VEGF165 [1], the concentration giving a half-maximal response (EC50) is 0.057 nM.

As for “VEGFR-Fc (aflibercept) (from UniProt P17948 129-230; P35968 225-327) (Fc fusion)”, in the assay with VEGF165 [2], the inhibition of VEGF165-stimulated HUVEC proliferation (IC50) stood at 0.107 nM.

A word on the EC50: it is the concentration at which the effect is half-maximal. Low readings indicate greater potency, high ones weaker potency.
